Target: T1, HA-tagged wild-type Erk2 (HA-Erk2, T188T or AA1-358) (mouse, UniProt P63085 1-358)
T1 construct: Mouse cDNA in a CMV expression plasmid, expressed in transfected cells; also called wt-Erk2; not shown: hemagglutinin (HA) tag
Experiment: co-precipitation of HA-tagged and Flag-tagged Erk2 after carbachol stimulation
Method: HEK293-cells were cultured in the absence or presence of carbachol (100 μM, 6 min) or UK14304 (1 μM, 10 min) before lysis. The inventors prepared ventricular tissue from mouse hearts derived from male 129SvEv (FIG. 1g,h), FVB/N wild-type (WT) or Erk2^T188-transgenic mice (1188T, T188D, T188S, T188A) (FVB/N background) without or after transverse aortic constriction (TAC, see Fig. legends for the duration of TAC) or carbachol-infusion. Control animals were strain-, age- and gender-matched. Lysates of ventricular tissue underwent sonification before immunoblot or immunoprecipitation assays.
FIG. 4 Activation of the entire MAPK-cascade is necessary for interaction of Gβγ with Erk1/2. […] (b) Gene silencing of Raf1 suppressed the carbachol-stimulated interaction of Erk1/2 with Gβ as assessed by co-immunoprecipitation with ERK1/2-specific antibodies (anti-ERK1/2). (c) Inhibition of Mek1/2-activity by PD98059 (50 μM) suppressed the carbachol-stimulated (CCH, 5 min) interaction of HA-Raf1 (Raf1) with Gβ as assessed by co-immunoprecipitation. […] (g, h) Interactions of HA-tagged wild-type Erk2 (AA1-358), truncated Erk2-mutants (AA1-318; AA22-358; AA22-318) and dimerization-deficient Erk2^Δ174-177 with Gβγ as assessed by co-immunoprecipition (g) and carbachol-stimulated inositol phosphate signaling (h) in HEK293-cells. […]

binding result: no binding
B1: Flag-Erk2^Δ174-177 (enzyme)
chain: MAAAAAAGPEMVRGQVFDVGPRYTNLSYIGEGAYGMVCSAYDNLNKVRVAIKKISPFEHQTYCQRTLREIKILLRFRHENIIGINDIIRAPTIEQMKDVYIVQDLMETDLYKLLKTQHLSNDHICYFLYQILRGLKYIHSANVLHRDLKPSNLLLNTTCDLKICDFGLARVADHTGFLTEYVATRWYRAPEIMLNSKGYTKSIDIWSVGCILAEMLSNRPIFPGKHYLDQLNHILGILGSPSQEDLNCIINLKARNYLLSLPHKNKVPWNRLFPNADSKALDLLDKMLTFNPHKRIEVEQALAHPYLEQYYDPSDEPIAEAPFKFDMELDDLPKEKLKELIFEETARFQPGYRS
notes: also called D174-177; dimerization-deficient Erk2^Δ174-177-mutant; not shown: Flag tag
